Source: patent publication US7109015B2, “Removal of N-terminal methionine from proteins by engineered methionine aminopeptidase” (Academia Sinica, priority 2004, dated 2006)
Like-named read-outs stand apart in the source and are kept apart here. Marks after values point to notes of the source that are not given here.

Assays:
[1] = target: glutathione S-transferase (GST) (Escherichia coli, UniProt P0AE18, M206T/Q233G); details: substrate MQDIL (SEQ ID NO:21)-GST
Description: (§1) The rpr (AF332139) gene encoding for the target protein, onconase, from Rana pipiens was tagged with NdeI and BamHI site at the 5′ and 3′ end, respectively, and inserted downstream of T7 promoter in the expression vector pET22b (Novagen) (Liao et al., 2003; Huang et al., 1998; Liao et al., 2000). The other target proteins were also cloned by the same method, including RC-RNase L1 (AF288642.2), RC-RNase 2 (AF242553), RC-RNase 3 (AF242554), RC-RNase 4 (AF242555), RC-RNase6 (AF242556) from Rana catesbeiana, CA150 (a transcription elongation regulator 1; NM_006706) and glutathione S-transferase (M14654).
(§2) The Escherichia coli methionine aminopeptidase gene (Accession Number M 15106) or its mutant was fused with the T7 promoter by three steps of PCR and inserted into the same pET22b vector containing a target protein, as described above, through SacI and HindIII. […] The second PCR was performed using the PCR product from step 1 as 5′ megaprimer, oligonucleotide 3 (5′[…]3′; SEQ ID NO:4) as 3′ primer, and the E. coli MetAP gene (M15101) as template (Huang et al., 1998; Ben-Bassat et al., 1987). The third PCR was to amplify the second PCR product using oligonucleotide 1 and oligonucleotide 3 as primers. The genes encoding the target protein and E. coli MetAP have their own T7 RNA polymerase promoter, but they may be transcribed into the same RNA molecule for cotranslation because only one transcription terminator exists, downstream of the MetAP gene. Alternatively, the MetAP gene alone may be directly subcloned into vector pET29b through the SacI and HindIII site.
(§3) The MetAP was expressed alone or co-expressed with a target protein, i.e., onconase and RC-RNaseL1, in E. coli BL21 (DE3) in the presence of 0.5 mM IPTG at 37° C.
(§4) Proteins in the cell pellet or in the soluble fraction were separated by 13.3% SDS-PAGE and contact-transferred to ProBlott™ membrane (Applied Bioystems) in transfer buffer (10 mM Tris-HCl, pH 7.5, 50 mM NaCl, 2 mM EDTA, 0.5 mM 2-mercaptoethanol) overnight. The five N-terminal residues of the transferred protein were determined by Edman degradation. The percentage of Met removal was calculated by dividing the amount of proteins initiated with the penultimate residue with the amount of total proteins (including proteins initiated with the penultimate residue and unprocessed protein initiated with Met) after the first degradation cycle. In theory, this percentage should remain the same after each degradation cycle. Therefore, in order to avoid experimental variation, the same calculation was made from five consecutive degradation cycles, e.g., M, Q, N, W and L for onconase. The efficiency of Met removal is reported as the mean values of at least three cycles. The mass spectrum analysis was carried out as described previously (Liao et al., 2003).

[2] = target: CA150, a transcription elongation regulator 1 (Escherichia coli, UniProt P0AE18, M206T/Q233G); details: substrate MLAGA (SEQ ID NO:20)-CA150; solubility +
Description: as §1, §2, §3, §4

RC-RNase6 = RC-RNase6 (Escherichia coli, UniProt P0AE18, M206T/Q233G); details: substrate MQDWD (SEQ ID NO:12)-RC6; solubility −
Description: as §1, §2, §3, §4

RC-RNaseL1 = RC-RNaseL1 (Escherichia coli, UniProt P0AE18, M206T/Q233G); details: solubility −
Description: as §1, §2, §3, §4

RC-RNase2 = RC-RNase2 (Escherichia coli, UniProt P0AE18, M206T/Q233G); details: substrate MQNEW (SEQ ID NO:17)-RC2; solubility −
Description: as §1, §2, §3, §4

RC-RNase3 = RC-RNase3 (Escherichia coli, UniProt P0AE18, M206T/Q233G); details: substrate MQDWE (SEQ ID NO:11)-RC3; solubility −
Description: as §1, §2, §3, §4

RC-RNase4 = experiment: In vivo Met removal, co-expression in E. coli, RC-RNase 4 substrate; assay type: cell-based, Rana catesbeiana; details: solubility −
[3] = substrate MQNWA (SEQ ID NO:18)-RCL1
[4] = substrate MAAWA (SEQ ID NO:15)-RC4
[5] = substrate MAPWA (SEQ ID NO:16)-RC4
[6] = substrate MQAWA (SEQ ID NO:14)-RC4

B1: MetAP-*TG (protein)
chain: AISIKTPEDIEKMRVAGRLAAEVLEMIEPYVKPGVSTGELDRICNDYIVNEQHAVSACLGYHGYPKSVCISINEVVCHGIPDDAKLLKDGDIVNIDVTVIKDGFHGDTSKMFIVGKPTIMGERLCRITQESLYLALRMVKPGINLREIGAAIQKFVEAEGFSVVREYCGHGIGRGFHEEPQVLHYDSRETNVVLKPGMTFTIEPTVNAGKKEIRTMKDGWTVKTKDRSLSAGYEHTIVVTDNGCEILTLRKDDTIPAIISHDE
Catalytic activity (%): removal of N-terminal Met ([1]; solubility +, same vector): 87% | Catalytic activity (%): removal of N-terminal Met ([1]; solubility +, target in pET22b co-transformed with MetAP in pET29b): 71% | Catalytic activity (%): removal of N-terminal Met ([1]; solubility −, same vector): 85% | Catalytic activity (%): removal of N-terminal Met ([1]; solubility −, target in pET22b co-transformed with MetAP in pET29b): 70% | Catalytic activity (%): percent of penultimate residue removed [2]: 71% | Catalytic activity (%): removal of N-terminal Met [2]: 100% | Catalytic activity (%): removal of N-terminal Met (RC-RNase6): 82% | Catalytic activity (%): removal of N-terminal Met (RC-RNaseL1; substrate MQDWA (SEQ ID NO:19)-RCL1): 99% | Catalytic activity (%): percent of penultimate residue removed (RC-RNaseL1; [3]): 62% | Catalytic activity (%): removal of N-terminal Met (RC-RNaseL1; [3]): 96% | Catalytic activity (%): percent of penultimate residue removed (RC-RNase2): 56% | Catalytic activity (%): removal of N-terminal Met (RC-RNase2): 80% | Catalytic activity (%): removal of N-terminal Met (RC-RNase3): 96% | Catalytic activity (%): percent of penultimate residue removed (RC-RNase4; [4]): 18% | Catalytic activity (%): removal of N-terminal Met (RC-RNase4; [4]): 100% | Catalytic activity (%): percent of penultimate residue removed (RC-RNase4; [5]): 63% | Catalytic activity (%): removal of N-terminal Met (RC-RNase4; [5]): 79% | Catalytic activity (%): percent of penultimate residue removed (RC-RNase4; [6]): 100 (100)^c % | Catalytic activity (%): removal of N-terminal Met (RC-RNase4; [6]): 100 (100)^c % | Catalytic activity (%): removal of N-terminal Met (RC-RNase4; substrate MQDWA (SEQ ID NO:13)-RC4): 93%
